T1: human haptoglobin (human Hp) (human, UniProt P00738 19-160; P00738 162-406)
T1 sequence 1: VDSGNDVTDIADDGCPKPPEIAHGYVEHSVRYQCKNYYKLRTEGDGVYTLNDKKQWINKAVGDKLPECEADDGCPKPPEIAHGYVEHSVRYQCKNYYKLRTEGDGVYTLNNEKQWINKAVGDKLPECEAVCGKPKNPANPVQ
T1 sequence 2: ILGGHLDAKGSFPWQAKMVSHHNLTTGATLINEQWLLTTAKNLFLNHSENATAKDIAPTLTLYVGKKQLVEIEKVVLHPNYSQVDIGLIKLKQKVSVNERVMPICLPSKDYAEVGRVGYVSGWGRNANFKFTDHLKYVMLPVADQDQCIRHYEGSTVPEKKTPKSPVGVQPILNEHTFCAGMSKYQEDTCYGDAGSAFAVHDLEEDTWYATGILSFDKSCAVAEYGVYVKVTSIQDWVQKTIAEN

T2: Chimera A (human with bovine residues, UniProt P00738 19-406)
T2 construct: α and β linked by a disulfide bond; Expi293F; also called human Hp/bovine Hp chimeric protein
T2 chain: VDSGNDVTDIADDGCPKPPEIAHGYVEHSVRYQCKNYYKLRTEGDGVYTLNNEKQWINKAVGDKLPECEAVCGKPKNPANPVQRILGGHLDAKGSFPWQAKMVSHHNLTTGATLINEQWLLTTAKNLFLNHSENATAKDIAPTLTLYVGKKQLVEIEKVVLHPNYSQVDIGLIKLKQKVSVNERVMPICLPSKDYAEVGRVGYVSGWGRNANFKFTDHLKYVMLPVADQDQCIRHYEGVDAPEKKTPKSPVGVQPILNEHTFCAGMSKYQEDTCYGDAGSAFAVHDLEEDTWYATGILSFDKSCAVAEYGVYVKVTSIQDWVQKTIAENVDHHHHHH

T3: Chimera F (human with bovine residues, UniProt P00738 19-406)
T3 construct: Expi293F; also called human Hp/bovine Hp chimeric protein
T3 chain: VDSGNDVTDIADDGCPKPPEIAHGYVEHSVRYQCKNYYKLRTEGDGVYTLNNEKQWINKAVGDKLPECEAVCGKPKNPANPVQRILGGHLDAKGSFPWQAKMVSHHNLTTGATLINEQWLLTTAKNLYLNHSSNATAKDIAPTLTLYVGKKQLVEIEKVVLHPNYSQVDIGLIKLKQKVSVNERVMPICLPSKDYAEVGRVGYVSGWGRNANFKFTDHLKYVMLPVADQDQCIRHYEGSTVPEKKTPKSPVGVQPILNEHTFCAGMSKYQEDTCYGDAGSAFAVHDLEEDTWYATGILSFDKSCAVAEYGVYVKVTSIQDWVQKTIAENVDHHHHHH


Assays:
[1] = target: full-length CD16a (V) expressed on CHO/DG44 cells (human) (UniProt P08637); test: flow cytometry competition on CD16a-expressing CHO/DG44 cells; competitor: anti-DNP antibody complexed with DNP-BSA-biotin
[2] = target: histidine tag-conjugated soluble CD16a (V) (human) (UniProt P08637); test: ELISA, soluble CD16a-His captured by anti-Tetra-His antibody, anti-human IgG-HRP detection
[3] = target: T1, human haptoglobin (human Hp); test: competitive ELISA on plate-coated human Hp (-: absorbance less than 0.5); competitor: anti-Hp polyclonal antibody
Protocol: The immobilized solution was removed, 1% BSA-PBS was then dispensed into the plate at 100 μL/well, and the plate was left to stand for 1 hour at room temperature for blocking and washed 3 times with PBST.
The plate was washed 3 times of PBST, and ABTS was dispensed into the plate at 50 μL/well for developing color. At a point in time when color was appropriately developed, 1% SDS was dispensed into the plate at 50 μL/well, and by using a plate reader, the absorbance at a sample wavelength of 415 nm and a reference wavelength of 490 nm was measured.

Chimera A = target: T2, Chimera A; test: ELISA on plate-coated antigen (-: absorbance ratio less than 0.5)
Protocol: (§1) The chimeras A to F, the recombinant human Hp and bovine Hp were immobilized in a 96-well plate based on the method described in Example 5, and blocking was performed.
(§2) The plate was washed 3 times with PBST, Goat anti Human IgG (H&L)-HRP or Rabbit anti-Mouse IgG-HRP diluted with 1% BSA-PBS was dispensed into the plate at 50 μL/well, and the plate was left to stand for 1 hour at room temperature. The color development and the absorbance measurement to be carried out thereafter were performed based on the method described in Example 5. By regarding the absorbance of the well, in which each of the anti-Hp antibodies was reacted with the recombinant human Hp, as 1, a ratio of the absorbance, in which the sample was reacted, to the aforementioned absorbance was calculated.

[4] = target: T1, human haptoglobin (human Hp); test: SEC-MALS of antibody 0.5 mg/mL mixed with human Hp 1.3 mg/mL, 16 hours at 37° C.
Protocol: In order to check whether the anti-Hp antibodies have bound to the human Hp and formed a immune complex, analysis was performed by gel filtration chromatography (Size Exclusion Chromatography, SEC) (column; BioSep SEC-s4000, 7.8×300 mm, Phenomenex Inc.) using HPLC (Prominence, Shimadzu Corporation).
The column was equilibrated using a mobile phase [50 mmol/L phosphate buffer (pH 7.0, 500 mmol/L NaCl)], the anti-Hp antibodies and the human Hp (Japan Blood Products Organization) were diluted with PBS and mixed together such that the concentrations of the anti-Hp antibodies and the human Hp became 0.5 mg/mL and 1.3 mg/mL, respectively, and the mixed solution was left to stand for 16 hours at 37° C.
The components contained in […] of the mixed solution were separated at a flow rate of 0.5 mL/min. Then, for each peak detected at a wavelength of 280 nm, a molecular weight was calculated using a maximum value of scattering intensity detected by a multi angle light scattering (MALS) detector (miniDAWN TREOS, Wyatt Technology Corporation).

Chimera F = target: T3, Chimera F; test: ELISA on plate-coated antigen (-: absorbance ratio less than 0.5)
Protocol: as §1, §2

Chain of histidine tag-conjugated soluble CD16a (V) (human) (P08637 other isoform, or with tags, fused parts or gaps limits assumed): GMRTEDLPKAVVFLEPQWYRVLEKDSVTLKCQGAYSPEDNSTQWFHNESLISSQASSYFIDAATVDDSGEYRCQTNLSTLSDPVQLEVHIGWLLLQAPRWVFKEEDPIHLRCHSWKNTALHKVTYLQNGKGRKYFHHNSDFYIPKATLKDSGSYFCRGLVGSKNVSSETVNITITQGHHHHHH
Chain of full-length CD16a (V) expressed on CHO/DG44 cells (human) (P08637 17-254 F176V limits assumed): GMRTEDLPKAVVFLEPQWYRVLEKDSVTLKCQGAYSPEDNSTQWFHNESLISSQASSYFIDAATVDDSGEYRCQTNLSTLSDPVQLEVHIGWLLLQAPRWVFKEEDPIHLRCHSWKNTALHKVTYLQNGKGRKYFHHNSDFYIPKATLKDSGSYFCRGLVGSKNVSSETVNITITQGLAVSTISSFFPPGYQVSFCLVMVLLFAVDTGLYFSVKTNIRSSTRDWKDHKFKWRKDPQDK

| IC50 [1] [µg/mL] | EC50 [2] [µg/mL] | absorbance (415 nm, reference 490 nm) [3] | absorbance ratio to recombinant human Hp (Chimera A) | Peak molecular weight of immune complex [4] | absorbance ratio to recombinant human Hp (Chimera F) | Molecule |
| --- | --- | --- | --- | --- | --- | --- |
| 540 | 1.06 | – | – | – | – | Intravenous immunoglobulin (IVIG) (antibody) |
| – | 0.473 | < 0.5 | – | – | – | anti-Hp antibody #96-6 (antibody, V domains shown, Recombinant human IgG1/kappa antibody; also called clone #96-6; Labeled #96-6) VH: EVQLLESGGGLVQPGGSLRLSCEASGSSVSSHFMTWVRQSPGKGLEWVSSISPNPAYTYYANSVKGRFTISRDNSKNMLYLQMNDLRAEDTARYYCARRSDFDTWGQGTMLTVSS VL: DIQMTQSPSAMSASVGDRVTITCRASRYIGKDLAWFQQKPGEVPKRLIYDASSLQSGVPSRFSGSGSGTEFTLTVSNLQPEDLGTYYCQHYYTFPLTFGPGTKVDIK |
| – | 0.405 | < 0.5 | < 0.5 | – | – | anti-Hp antibody #105 (antibody, V domains shown, Recombinant human IgG1/kappa antibody) VH: QVHLQQWGAGLLKPSETLSLTCNVYGSSLSQYFWNWIRQPPGKGLEWMGRITSGGSTNYNPSLESRVTIIVDTFKNQFSLKLVSVTAADTAVYYCARGPFVEGAAPTVLGTGFSIWGQGTMVTVSS VL: EIVLTQSPGTLSLSPGERATLSCRASQSVNNNYLAWYQQKPGQAPRLLIYDASKRATGIPDRFSGSGSGTDFTLTISRLEPEDFAVYYCQQYGHSRPYTFGQGAKLEIK |
| – | 1.99 | – | – | 341000 | – | anti-Hp antibody #4 (antibody, V domains shown, also called clone #4; #4 antibody) VH: EVHLLESGGGLVQPGGSLRLSCQASGFTFNSNAMSWVRRAPGKGLEWISSIGANTNYIYTADSVKGRFTISRDNSKNTLYLQMNSLRAEDTAAYYCAKNRDRYSYDAWSVWGQGTTVTVSS VL: DIQMTQSPSTLSASVGDRVTITCRASQSIDIWLAWYQQKPGKAPKLLIYEASSLESEVPSRFSGSGSGTEFTLTISSLQPDDFATYYCQAYNSNYPYAFGQGTNLEIK |
| – | 0.805 | < 0.5 | – | – | – | anti-Hp antibody #6 (antibody, V domains shown, Recombinant human IgG1/kappa antibody; also called clone #6; #6 antibody) VH: EVQLLESGGGLVQPGGSLKLSCVASEFTFSNYAMSWVRQAPGKGLEWVSTFSSGGSRTFYADSVRGRFTISRDNSNNMLFLQIDSLRAEDTAVYYCAKAQFVGHWAQYNYWGQGALVTVSS VL: DIQMTQSPSSLSASVGDRVAITCRASQGIRNYLAWYQQKPGKVPKLLIYDAFILQSGVPSRFSGSGSGTDFTLTISSLQPEDVATYYCQKSDSPPLTFGGGTKVEIK |
| 238 | 0.763 | – | – | 523000 | < 0.5 | anti-Hp antibody #27 (antibody, V domains shown, Recombinant human IgG1/kappa antibody; also called clone #27; #27 antibody) VH: EQQLVESGGGLVQPGRSLTLSCVASGFTFGDYAMGWVRQAPGKGLEWVSSISSDALYKGYVDSVKGRFTVSRDNAKNSLYLQMDNLRTEDTAFYYCTKDLRSGNFGQYGDWGQGTLVTVSS VL: AIQMTQSPSSLSASVGDRVTITCRASQGIGSDLTWYQQEPGKAPKLLIYAASTLQSGVPSRFSGGGSGTDFTLTISSLQPEDAATYYCLQSHGYPLTFGQGTKLEIK |
